Test results: article PMC9177958, “Structures of nonsense-mediated mRNA decay factors UPF3B and UPF3A in complex with UPF2 reveal molecular basis for competitive binding and for neurodevelopmental disorder-causing mutation” (Nucleic Acids Research, 2022)
Positions count from the first letter of the chain named. In names and notes the source's numbering stands.

T1: UPF3B-WT (human, UniProt Q9BZI7-2 1-470)
T1 sequence: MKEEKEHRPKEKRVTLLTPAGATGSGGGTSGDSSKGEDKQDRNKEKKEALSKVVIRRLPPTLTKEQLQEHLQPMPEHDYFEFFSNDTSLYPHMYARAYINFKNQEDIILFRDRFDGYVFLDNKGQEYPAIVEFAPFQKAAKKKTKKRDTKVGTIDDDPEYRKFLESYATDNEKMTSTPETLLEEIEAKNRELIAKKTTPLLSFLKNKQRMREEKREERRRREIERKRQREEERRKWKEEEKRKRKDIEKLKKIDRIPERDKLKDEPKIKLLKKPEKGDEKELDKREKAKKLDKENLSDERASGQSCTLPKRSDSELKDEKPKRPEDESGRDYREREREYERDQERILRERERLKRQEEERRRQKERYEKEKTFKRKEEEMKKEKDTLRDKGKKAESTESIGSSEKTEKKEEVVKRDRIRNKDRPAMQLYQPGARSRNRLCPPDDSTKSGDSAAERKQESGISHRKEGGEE

T2: UPF2L (120–1227) (UniProt Q9HAU5 120-1227)
T2 construct: UPF2, larger construct with wildtype activity, amino acids 120-1227; source: E. coli BL21 Rosetta2(DE3), purified (Ni-NTA, TEV, reverse IMAC, ion exchange)
T2 sequence (looked up): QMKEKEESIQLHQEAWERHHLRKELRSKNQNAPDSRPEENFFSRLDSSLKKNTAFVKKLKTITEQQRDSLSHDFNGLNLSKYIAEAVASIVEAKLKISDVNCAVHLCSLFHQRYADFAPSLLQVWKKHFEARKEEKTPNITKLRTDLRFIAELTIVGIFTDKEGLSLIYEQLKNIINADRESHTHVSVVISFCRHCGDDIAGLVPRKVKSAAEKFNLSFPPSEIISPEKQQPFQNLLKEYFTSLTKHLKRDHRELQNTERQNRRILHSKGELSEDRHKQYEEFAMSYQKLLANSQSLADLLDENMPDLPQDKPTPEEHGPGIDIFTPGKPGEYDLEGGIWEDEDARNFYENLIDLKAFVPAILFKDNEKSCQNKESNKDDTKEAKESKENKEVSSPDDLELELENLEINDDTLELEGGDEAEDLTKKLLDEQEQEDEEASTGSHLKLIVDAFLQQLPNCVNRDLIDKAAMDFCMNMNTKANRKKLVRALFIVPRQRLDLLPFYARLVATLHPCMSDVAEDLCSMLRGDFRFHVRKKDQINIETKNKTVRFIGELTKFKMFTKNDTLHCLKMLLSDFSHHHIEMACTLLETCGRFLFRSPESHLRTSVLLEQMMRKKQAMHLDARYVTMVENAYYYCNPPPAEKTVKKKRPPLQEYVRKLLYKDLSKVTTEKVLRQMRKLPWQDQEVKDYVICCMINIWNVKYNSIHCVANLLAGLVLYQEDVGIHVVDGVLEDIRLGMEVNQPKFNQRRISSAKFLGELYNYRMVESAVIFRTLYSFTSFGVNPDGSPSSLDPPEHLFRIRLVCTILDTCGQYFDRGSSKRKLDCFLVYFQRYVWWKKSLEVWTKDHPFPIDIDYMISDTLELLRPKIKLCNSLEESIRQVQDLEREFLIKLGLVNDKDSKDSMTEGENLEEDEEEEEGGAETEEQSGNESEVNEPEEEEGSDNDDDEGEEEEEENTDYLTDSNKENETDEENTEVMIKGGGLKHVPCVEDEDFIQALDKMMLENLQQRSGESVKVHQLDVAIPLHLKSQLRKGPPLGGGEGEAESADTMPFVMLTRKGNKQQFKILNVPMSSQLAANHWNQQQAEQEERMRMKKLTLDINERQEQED

T3: UPF3A-WT (human, UniProt Q9H1J1 1-476)
T3 construct: UPF3A, human, full length; The cloning of UPF3A-WT is not described in the methods; also called full-length UPF3A-WT; source: insect cells (MultiBac), purified (Ni-NTA, TEV, reverse IMAC, ion exchange)
T3 sequence (looked up): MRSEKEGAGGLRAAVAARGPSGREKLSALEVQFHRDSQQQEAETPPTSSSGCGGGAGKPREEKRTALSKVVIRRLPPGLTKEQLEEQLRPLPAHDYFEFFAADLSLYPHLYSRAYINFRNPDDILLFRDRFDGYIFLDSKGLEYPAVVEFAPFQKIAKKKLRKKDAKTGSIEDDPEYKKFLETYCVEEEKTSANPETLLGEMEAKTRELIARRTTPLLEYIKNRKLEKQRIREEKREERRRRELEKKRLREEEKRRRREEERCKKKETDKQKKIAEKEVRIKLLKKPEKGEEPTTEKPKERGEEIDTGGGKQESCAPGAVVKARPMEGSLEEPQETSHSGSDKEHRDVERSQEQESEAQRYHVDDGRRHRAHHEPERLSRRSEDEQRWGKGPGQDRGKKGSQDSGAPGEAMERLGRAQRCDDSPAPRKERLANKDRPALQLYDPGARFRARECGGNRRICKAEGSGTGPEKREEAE

B1: UPF3B-41–143 (domain or fragment, human, UniProt Q9BZI7 41-143, looked up)
chain: DRNKEKKEALSKVVIRRLPPTLTKEQLQEHLQPMPEHDYFEFFSNDTSLYPHMYARAYINFKNQEDIILFRDRFDGYVFLDNKGQEYPAIVEFAPFQKAAKKK
notes: UPF3B, human, RRM-L domain, residues 41-143; also called RRM-L alone; RRM-L only; source: E. coli BL21 Rosetta2(DE3), purified (Ni-NTA, TEV, reverse IMAC, ion exchange)
B2: 24mer dsDNA (dsDNA)
DNA 1: CCCTGAGCTGACGCAGCACCTGGG
DNA 2: CCCAGGTGCTGCGTCAGCTCAGGG
B3: UPF3B-41–189 (domain or fragment, human, UniProt Q9BZI7 41-189, looked up)
chain: DRNKEKKEALSKVVIRRLPPTLTKEQLQEHLQPMPEHDYFEFFSNDTSLYPHMYARAYINFKNQEDIILFRDRFDGYVFLDNKGQEYPAIVEFAPFQKAAKKKTKKRDTKVGTIDDDPEYRKFLESYATDNEKMTSTPETLLEEIEAKN
notes: UPF3B, human, RRM-L and N-terminal part of the middle-domain (NOPS-L), residues 41-189; also called UPF3B-1–189 (as printed once); source: E. coli BL21 Rosetta2(DE3), purified (Ni-NTA, TEV, reverse IMAC, ion exchange)
B4: UPF3B-41–189 Y160D + Y167D (domain or fragment, human, UniProt Q9BZI7 41-189, looked up)
chain: B3 chain with Y120D, Y127D
notes: UPF3B, human, residues 41-189 with Y160D and Y167D; source: E. coli BL21 Rosetta2(DE3), purified (Ni-NTA, TEV, reverse IMAC, ion exchange)
B5: UPF3B-41–189 Y160D (domain or fragment, human, UniProt Q9BZI7 41-189, looked up)
chain: B3 chain with Y120D
notes: UPF3B, human, residues 41-189 with the disease-causing (XLID) mutation Y160D; Y160D is a patient mutation and is also used as a phosphomimetic; also called UPF3B-Y160D; phosphomimetic/disease mutation; source: E. coli BL21 Rosetta2(DE3), purified (Ni-NTA, TEV, reverse IMAC, ion exchange)
B6: UPF3B-41–189 Y160A (domain or fragment, human, UniProt Q9BZI7 41-189, looked up)
chain: B3 chain with Y120A
notes: UPF3B, human, residues 41-189 with Y160A; source: E. coli BL21 Rosetta2(DE3), purified (Ni-NTA, TEV, reverse IMAC, ion exchange)
B7: UPF3B-41–189 F163A (domain or fragment, human, UniProt Q9BZI7 41-189, looked up)
chain: B3 chain with F123A
notes: UPF3B, human, residues 41-189 with F163A; it is named in the results; source: E. coli BL21 Rosetta2(DE3), purified (Ni-NTA, TEV, reverse IMAC, ion exchange)
B8: UPF3B-41–189 Y167A (domain or fragment, human, UniProt Q9BZI7 41-189, looked up)
chain: B3 chain with Y127A
notes: UPF3B, human, residues 41-189 with Y167A; source: E. coli BL21 Rosetta2(DE3), purified (Ni-NTA, TEV, reverse IMAC, ion exchange)
B9: UPF3B-41–189 Y167D (domain or fragment, human, UniProt Q9BZI7 41-189, looked up)
chain: B3 chain with Y127D
notes: UPF3B, human, residues 41-189 with Y167D; also called Y167D (phosphomimetic); source: E. coli BL21 Rosetta2(DE3), purified (Ni-NTA, TEV, reverse IMAC, ion exchange)
B10: UPF3B-41–189 Y160A + Y167A (domain or fragment, human, UniProt Q9BZI7 41-189, looked up)
chain: B3 chain with Y120A, Y127A
notes: UPF3B, human, residues 41-189 with Y160A and Y167A; source: E. coli BL21 Rosetta2(DE3), purified (Ni-NTA, TEV, reverse IMAC, ion exchange)
B11: UPF3B-WT (residues 1–470) (natural protein, human, UniProt Q9BZI7-2 1-470, looked up)
chain: T1 sequence
notes: UPF3B, human, isoform 2 (the predominant form found in cells), residues 1-470, printed length 470; also called full-length UPF3B; source: insect cells (MultiBac), purified (Ni-NTA, TEV, reverse IMAC, ion exchange)
B12: biotinylated Avi-UPF2-MIF4GIII (domain or fragment, UniProt Q9HAU5 761-1054, looked up)
chain: EKTVKKKRPPLQEYVRKLLYKDLSKVTTEKVLRQMRKLPWQDQEVKDYVICCMINIWNVKYNSIHCVANLLAGLVLYQEDVGIHVVDGVLEDIRLGMEVNQPKFNQRRISSAKFLGELYNYRMVESAVIFRTLYSFTSFGVNPDGSPSSLDPPEHLFRIRLVCTILDTCGQYFDRGSSKRKLDCFLVYFQRYVWWKKSLEVWTKDHPFPIDIDYMISDTLELLRPKIKLCNSLEESIRQVQDLEREFLIKLGLVNDKDSKDSMTEGENLEEDEEEEEGGAETEEQSGNESEVNE
modifications: biotin on the Avi tag (BirA)
notes: UPF2, third middle-domain of eukaryotic initiation factor 4G (MIF4GIII), residues 761-1054; Avi tag added by site-directed mutagenesis to UPF2-MIF4GIII; also called immobilized UPF2-MIF4GIII; source: E. coli BL21 Rosetta2(DE3), purified (Ni-NTA, TEV, reverse IMAC, ion exchange); biotinylated with BirA, SEC
B13: 24mer ssDNA (ssDNA)
DNA: CCCTGAGCTGACGCAGCACCTGGG
B14: UPF3A-58–206-Iso1 (domain or fragment, human, UniProt Q9H1J1 58-206, looked up)
chain: KPREEKRTALSKVVIRRLPPGLTKEQLEEQLRPLPAHDYFEFFAADLSLYPHLYSRAYINFRNPDDILLFRDRFDGYIFLDSKGLEYPAVVEFAPFQKIAKKKLRKKDAKTGSIEDDPEYKKFLETYCVEEEKTSANPETLLGEMEAKT
notes: Codon-optimized for E. coli, gene-synthesized; also called UPF3A-58–208 (as printed once); source: E. coli BL21 Rosetta2(DE3), purified (Ni-NTA, TEV, reverse IMAC, ion exchange)
B15: UPF3A-58–206-NOPS* C185A-V186T-E187D (domain or fragment, human, UniProt Q9H1J1 58-206, looked up)
chain: B14 chain with C128A, V129T, E130D
notes: also called NOPS* construct; source: E. coli BL21 Rosetta2(DE3), purified (Ni-NTA, TEV, reverse IMAC, ion exchange)
B16: UPF3A-58–206-RRM* A101S-A102N-L104T (domain or fragment, human, UniProt Q9H1J1 58-206, looked up)
chain: B14 chain with A44S, A45N, L47T
notes: also called RRM* construct; source: E. coli BL21 Rosetta2(DE3), purified (Ni-NTA, TEV, reverse IMAC, ion exchange)

Experiments:
[1] = biological target: B12; experiment: SPR; 350 RU biotinylated Avi-UPF2-MIF4GIII immobilised on an SA chip (Biacore T200); UPF3B and UPF3A constructs injected; 15°C; 300 mM NaCl, 25 mM HEPES pH 7.4, 0.25 mM TCEP, 0.05% Tween-20; global fit, 1:1 binding model; settings: both partners purified
UPF3B-WT = biological target: T1, UPF3B-WT; experiment: fluorescence anisotropy; FA: 5 nM probe, 150 mM NaCl, 25 mM HEPES pH 7.45, 1 mM TCEP, 20 C; EMSA: 250 nM probe, 25 mM HEPES pH 7.45, 2 mM MgCl2, 150 mM NaCl, 0.5 mM TCEP, on ice; settings: protein: recombinant, tags: 6xHis removed by TEV
UPF2L (120–1227) = biological target: T2, UPF2L (120–1227); experiment: native gel or EMSA; 250 nM HEX-labelled ssRNA with 2 μM UPF3B-WT or UPF2L and increasing ratios of the other; on ice 1 h; 25 mM HEPES pH 7.45, 2 mM MgCl2, 150 mM NaCl, 0.5 mM TCEP; 4–20% Tris-Glycine native gel, Coomassie; settings: both partners purified
[2] = biological target: B11; experiment: SPR; 350 RU biotinylated Avi-UPF2-MIF4GIII immobilised on an SA chip (Biacore T200); UPF3B and UPF3A constructs injected; 15°C; 300 mM NaCl, 25 mM HEPES pH 7.4, 0.25 mM TCEP, 0.05% Tween-20; global fit, 1:1 binding model; settings: both partners purified
UPF3A-WT = biological target: T3, UPF3A-WT; experiment: as above; settings: both partners purified

Binder	Kd [1]	other results
B1	720 nM	–
B2	–	Kd (UPF3B-WT; label: 5' HEX on strand 1, blunt): 61 nM
B3	3.6 nM	–
B4	~130 nM	–
B5	140 nM	–
B6	88 nM	–
B7	90 nM	–
B8	3.3 nM	–
B9	7.4 nM	–
B10	~130 nM	–
B11	–	binding result (UPF2L (120–1227)): binds
B12	–	Kd [2]: 0.47 nM; Kd (UPF3A-WT): 0.048 nM
B13	–	Kd (UPF3B-WT; label: 5' HEX, single strand): 190 nM
B14	0.22 nM	–
B15	2.6 nM	–
B16	0.77 nM	–
